Source: paper PMC4446428, “A novel RNA binding surface of the TAM domain of TIP5/BAZ2A mediates epigenetic regulation of rRNA genes”

Legend:
[1] = tested on: TIP5/TAM-AT (Homo sapiens); assay: filter binding (Scatchard); conditions: 5 mM Mg2+, protein preincubated with 4x excess unlabeled MCS-RNA, EMSA: 12 mM Tris-HCl pH 8.0, 100 mM KCl, 5 mM MgCl2, 0.1 mM EDTA, 0.5 mM DTT, 3% glycerol, on ice, filter binding: 10 mM Tris-HCl pH 7.4, 100 mM KCl
[2] = target: T1, TIP5/TAM (Homo sapiens, UniProt Q9UIF9 516-623); assay: NMR titration; negligible shift changes; EMSA: 12 mM Tris-HCl pH 8.0, 100 mM KCl, 5 mM MgCl2, 0.1 mM EDTA, 0.5 mM DTT, 3% glycerol, on ice; filter binding: 10 mM Tris-HCl pH 7.4, 100 mM KCl, 5 mM MgCl2, on ice; NMR: 20 mM Na phosphate pH 7.0, 50 mM NaCl, 1 mM DTT, 298 K (TAM-AT) or 293 K (TAM); conditions: protein: recombinant; tags: His6-GB1, TEV-removed; label: none; single-stranded
T1 sequence: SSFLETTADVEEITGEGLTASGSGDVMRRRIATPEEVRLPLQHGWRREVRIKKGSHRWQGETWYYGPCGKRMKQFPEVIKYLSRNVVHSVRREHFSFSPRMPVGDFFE

[3] = target: T1, TIP5/TAM; assay: NMR titration; EMSA: 12 mM Tris-HCl pH 8.0, 100 mM KCl, 5 mM MgCl2, 0.1 mM EDTA, 0.5 mM DTT, 3% glycerol, on ice; filter binding: 10 mM Tris-HCl pH 7.4, 100 mM KCl, 5 mM MgCl2, on ice; NMR: 20 mM Na phosphate pH 7.0, 50 mM NaCl, 1 mM DTT, 298 K (TAM-AT) or 293 K (TAM); conditions: protein: recombinant; tags: His6-GB1, TEV-removed; label: none; hairpin

Molecule: pRNA (mouse rDNA -204/-1)
- Kd [1]: 5.5 nM

B1: 13-mer poly-U RNA (ssRNA)
RNA: UUUUUUUUUUUUU
- binding result [2]: no binding

B2: Xist A-repeat RNA hairpin (structured_RNA)
RNA: GGCGCAUCGGCGCC
- binding result [3]: binds
